Laboratory results taken from article PMC8130932 (PLoS Pathogens, 2021).

T1: Human coronavirus OC43 spike glycoprotein S1+S2 extracellular domain (Human coronavirus OC43, AVR40344.1 (by …))
T1 construct: source: bought: Sino Biologicals
T1 chain: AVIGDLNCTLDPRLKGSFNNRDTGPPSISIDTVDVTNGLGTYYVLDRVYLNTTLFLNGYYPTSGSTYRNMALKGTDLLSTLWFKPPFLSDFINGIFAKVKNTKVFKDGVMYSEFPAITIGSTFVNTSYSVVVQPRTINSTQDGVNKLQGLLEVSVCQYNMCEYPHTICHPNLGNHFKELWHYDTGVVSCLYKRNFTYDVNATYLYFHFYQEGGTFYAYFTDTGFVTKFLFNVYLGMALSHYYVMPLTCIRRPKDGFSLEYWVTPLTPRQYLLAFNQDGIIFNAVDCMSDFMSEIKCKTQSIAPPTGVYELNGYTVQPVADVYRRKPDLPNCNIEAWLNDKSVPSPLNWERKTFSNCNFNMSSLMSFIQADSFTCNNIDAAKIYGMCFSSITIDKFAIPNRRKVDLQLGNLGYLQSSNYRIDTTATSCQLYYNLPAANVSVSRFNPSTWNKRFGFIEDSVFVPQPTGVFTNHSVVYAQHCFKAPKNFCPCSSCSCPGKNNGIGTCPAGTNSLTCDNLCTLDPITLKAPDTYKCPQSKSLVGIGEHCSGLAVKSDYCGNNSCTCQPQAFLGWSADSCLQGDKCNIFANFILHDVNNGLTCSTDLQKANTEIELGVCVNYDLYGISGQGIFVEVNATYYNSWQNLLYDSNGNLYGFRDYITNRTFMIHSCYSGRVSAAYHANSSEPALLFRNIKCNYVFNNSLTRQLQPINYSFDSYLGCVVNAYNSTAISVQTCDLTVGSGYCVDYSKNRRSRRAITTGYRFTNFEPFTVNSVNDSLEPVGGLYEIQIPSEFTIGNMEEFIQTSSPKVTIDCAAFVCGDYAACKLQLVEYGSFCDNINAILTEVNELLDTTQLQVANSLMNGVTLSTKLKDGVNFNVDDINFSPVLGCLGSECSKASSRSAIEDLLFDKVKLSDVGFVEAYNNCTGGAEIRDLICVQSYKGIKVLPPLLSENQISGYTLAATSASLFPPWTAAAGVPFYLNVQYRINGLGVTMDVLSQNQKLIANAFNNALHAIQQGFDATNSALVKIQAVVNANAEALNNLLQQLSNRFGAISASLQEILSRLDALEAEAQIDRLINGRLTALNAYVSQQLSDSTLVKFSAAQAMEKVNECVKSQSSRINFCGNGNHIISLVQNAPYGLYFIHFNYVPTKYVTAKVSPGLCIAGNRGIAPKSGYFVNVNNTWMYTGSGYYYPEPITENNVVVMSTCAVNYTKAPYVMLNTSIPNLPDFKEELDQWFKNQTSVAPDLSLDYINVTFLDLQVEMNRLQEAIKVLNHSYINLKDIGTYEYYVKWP


Tests used:
[1] = target: T2, SARS-CoV-2 spike S2 subunit, recombinant (SARS-CoV-2, reference sequence, UniProt P0DTC2); experiment: ELISA
T2 construct: source: bought: Sino Biologicals, baculovirus-insect cells

[2] = target: T3, MERS spike glycoprotein S1+S2 extracellular domain (MERS coronavirus, isolate EMC/2012 (by …, UniProt K0BRG7)); experiment: ELISA
T3 construct: source: bought: Sino Biologicals, baculovirus-insect cells

[3] = target: T1, Human coronavirus OC43 spike …; experiment: ELISA
[4] = target: SARS-CoV-2 spike glycoprotein of wild-type virus, in infected Vero E6 cells (SARS-CoV-2 …, UniProt P0DTC2); experiment: cell-based or functional assay
[5] = target: T4, SARS-CoV-2 RBD (amino acids 340-538) on MDCK-SIAT1 cells (SARS-CoV-2 (so in the source)); experiment: flow cytometry on cells; details: one partner purified
T4 construct: also called MDCK-RBD; source: MDCK-SIAT1, stably transduced (lentiviral vector), on the cell surface

[6] = target: T5, SARS-CoV-2 NTD on MDCK-SIAT1 cells (SARS-CoV-2 (so in the source)); experiment: flow cytometry on cells; details: one partner purified
T5 construct: also called MDCK-NTD

[7] = target: SARS-CoV-2 nucleocapsid, recombinant (SARS-CoV-2, reference sequence, UniProt P0DTC9); experiment: ELISA
[8] = target: T6, SARS nucleocapsid, recombinant (SARS-CoV, reference sequence (strain …, UniProt P59595)); experiment: ELISA
T6 construct: source: bought: Sino Biologicals, baculovirus-insect cells

Binder | OD450 [1] | OD450 [3] | PRNT EC50, wild-type SARS-CoV-2 (hCoV-19/England/02/2020) on Vero E6 cells [4] | binding result [5] | binding result [6] | OD450 [7] | other results
FB 1E (antibody, V domains shown, source: HEK293T, transfected; culture supernatant or purified) VH: EVQLVESGAEVKKPGESLKISCQGSGYRFNSYWIAWVRQMPGKGLEWMGSIFPTDSDIRYNPSFQGQVTISADKSISIAYLQWSSLKASDTAIYYCARHWASMVRGVIRASHYYGMDVWGQGTTVTVSS VL: QSVLTQPPSASGSPGQSVTISCSGASSDIGDYNYVSWYQQLPGKAPKLLIYEVTKRPSGVPDRFSGSKSGNTASLTVSGLQADDEADYYCSSYAFGGSDIRVFGGGTKLAVL | 1.2 OD450 | 2.34 OD450 | 36 nM |  |  |  | OD450 [2]: 1.01 OD450
EW 9C (antibody, V domains shown, source: HEK293T, transfected; culture supernatant or purified) VH: EVQLVESGGGVVQPGASLRLSCVASGFTFNNFGFHWVRQAPGKGLEWLAVISYEGSKTYYAESLKGRFTISRDTSKNTVYLQMNSLRAEDTAVYYCARATSIFWFGEGRNWFDPWGQGTMVTVSS VL: EIVLTQSPGTVSLSAGERATLSCRASQNVGTDLAWYVQRPGQAPRLLIYDTSNKATGIPARFSGRGSGTDFTLTIDSLEPEDFAVYYCQQRSNWPLTFGGGTKVEIR | 1.17 OD450 | 1.82 OD450 | 133 nM |  |  |  | 
FJ 1C (antibody, V domains shown, source: HEK293T, transfected; culture supernatant or purified) VH: QVQLQESGPGLVKPSETLSLTCTVSGYSISSGYYWGWIRQPPGKGLEWIGSIYHSGSTYYNPSLKSRVTISVDTSKNQFSLKLSSVTAADTAVYYCARDKALLWFGELFTNLFDYWGQGTLVTVSS VL: QSALTQPASVSGSPGQSITISCTGTSSDVGGYNYVSWYQQHPGKAPKLMIYEVSNRPSGVSNRFSGSKSGNTASLTISGLQAEDEANYYCSSYTSSSTLVFGGGTKLTVL |  |  | 55.5 nM | no binding | binds |  | 
FD 11E (antibody, V domains shown, source: HEK293T, transfected; culture supernatant or purified) VH: EVQLVESGGGLVKPGGSLRLSCAASGFTFSSYSMNWVRQAPGKGLEWVSSISSSSSYIYYADSVKGRFTISRDNAKNSLYLQMNSLRAEDTAVYYCASLAAAGPETYYYYGMDVWGQGTMVTVSS VL: not shown |  |  | 70 nM | no binding | no binding |  | 
FD 1E (antibody, V domains shown, source: HEK293T, transfected; culture supernatant or purified) VH: EVQLLESGGGLVKPGGSLRLSCAASGFTFSSYSMNWVRQAPGKGLEWVSSISSSSSYIYYADSVKGRFTISRDNAKNSLYLQMNSLRAEDTAVYYCASLAAAGPETYYYYGMDVWGQGTMVTVSS VL: not shown |  |  | 110 nM |  |  |  | 
FD 10A (antibody, V domains shown, source: HEK293T, transfected; culture supernatant or purified) VH: EVQLVESGGGLVQPGGSLRLSCAASGFTFSSYWMHWVRQAPGKGLVWVSRINSDGSSTSYADSVKGRFTISRDNAKNTLYLQMNSLRAEDTAVYYCANMAFDIWGQGTMVTVSS VL: not shown | 1.32 OD450 |  | 111 nM | no binding | no binding |  | 
FJ 4E (antibody, V domains shown, source: HEK293T, transfected; culture supernatant or purified) VH: QVQLVESGPGLVKPSETLSLTCSVSGGSISSGTYYWSWIRQQPGKGLEWIGYIYNTGRPYYNPFLKSRITISVDSSKNQFSLKLTSVTAADTAVYYCARDEYDSSDSGIQGHWFDPWGQGTLVTVSS VL: AIRMTQSPSSLSASVGDRVTITCRTSQNINSFLNWYQQKPGKGPNLLIYGAFTLQSGVPSRFSGSGSGTDFTLTISSLQPEDFATYFCQQSYSTPWTFGQGTKVEIK | 0.91 OD450 | 1.68 OD450 |  | no binding | no binding |  | OD450 [2]: 1.08 OD450
FB 9D (antibody, V domains shown, source: HEK293T, transfected; culture supernatant or purified) VH: QVQLVESGAEVKKPGESLKISCQGSGYRFNSYWIAWVRQMPGKGLEWMGSIFPTDSDVRYNPSFQGQVTISADKSISFAYLQWSSLKASDTAIYYCARHWASMVRGVIRASHYYGMDVWGQGTTVTVSS VL: QPVLTQPPSASGSPGQSVTISCSGASSDIGKYNYVSWYQQLPGKAPKLLIYEVTKRPSGVPDRFSGSKSGNTASLTVSGLQADDEADYYCSSYAFGGSDTRVFGGGTKLTVL | 1.27 OD450 | 2.13 OD450 |  | no binding | no binding |  | OD450 [2]: 1.5 OD450
FN 2C (antibody, V domains shown, source: HEK293T, transfected; culture supernatant or purified) VH: EVQLLESGGGVVQPGRSLRLSCAASGFNFNNYGMHWVRQAPGKGLEWVATISYEGSKKFYVDSVKGRFTISKDNSKNTLYLQMNSLRVDDTAFYYCAKRREIFWLGEPPLSDAFDFWGQGTMVTVSS VL: QSVLTQPPSVSGAPGQRVTISCTGSGSNIGAGYDVHWYQFLPGTAPQLLIYGNNNRPSGVPDRFSGSKSGTSASLAITGLQAEDEADYYCQSYDSSLSGSVFGGGTKLTVL | 1.15 OD450 | 2.2 OD450 |  |  |  |  | 
EY 2A (antibody, V domains shown, source: HEK293T, transfected; culture supernatant or purified) VH: QVQLVESGAEVTKPGDSLIISCKGSGYAFTQYWIGWVRQKPGKGLEWMAMVYPDSSAVFAGGASGVRYRPPFQGQVTISADTSVNTAYLQWDSLKASDTAMYYCVRQERGSNTWYAGNSWGQGTLVTVSS VL: DIVMTQSPLSLPVSPGEPASISCRSSQSLLHTDAYNYLDWYLQKPGQSPQLLIYLGSTRASGVPDRFSGSGSGTDFTLKISSVKAEDVGVYYCMQALQTPGTFGQGTKLEIK |  |  |  |  |  | 1.28 OD450 | OD450 [8]: 1.13 OD450
EY 3B (antibody, V domains shown, source: HEK293T, transfected; culture supernatant or purified) VH: EVQLVESGAEVTKPGESLIISCKGSGYAFTQYWIGWVRQKPGKGLEWMAMVYPDSSAVFAGGASGVRYRPPFQGQVTISADTSVNTAYLQWDSLKASDTAMYYCVRQERGSNTWYAGNSWGQGTLVTVFS VL: EIVLTQSPLSLPVSPGEPASISCRSSQSLLHTDAYNYLDWYLQKPGQSPQLLIYLGSTRASGVPDRFSGSGSGTDFTLKISSVKAEDVGVYYCMQALQTPGTFGQGTKVEIR |  |  |  |  |  | 1.22 OD450 | OD450 [8]: 1 OD450
FD 6D (antibody, V domains shown, source: HEK293T, transfected; culture supernatant or purified) VH: EVQLVESGPGLVKVSETLFLTCTVSGYSIGSGNYWGWIRQPPGKVLEWIGSTYHSGTTYYNPSLKSRVTISVDSSKNQFSLKLTSVTAADTAVYYCARDRLLAVHYDSRGYLVDYWGQGTMVTVSS VL: AIRMTQSPDSLAVSLGERATINCKSSQSIFYSSNNKNYLAWYQHKPGQPPKLLIYWASTRESGVPDRFSGSGSGTDFTLTISSLQAEDVAIYYCQQYYDIPRTFGQGTKVEIR |  |  |  |  |  | 1.73 OD450 | OD450 [8]: 1.19 OD450
EZ 4A (antibody, V domains shown, source: HEK293T, transfected; culture supernatant or purified) VH: EVQLVQSGAEVKKPGESLKISCKGSGYSFTSYWIGWVRQMPGKGLEWMGIIYPGDSDTRYSPSFQGQVTISADKSISTAYLQWSSLKASDTAMYYCARSPIAADLFDYWGQGTLVTVSS VL: not shown |  |  |  |  |  | 1.03 OD450 | 
EZ 4C-1 (antibody, V domains shown, source: HEK293T, transfected; culture supernatant or purified) VH: EVQLVESGPGLVKPSETLSLTCTVSGGSVSSGNNYWSWIRQPPGKALEWIGYIYYSGSTKYNPSLKSRVTMSVGTSKNQFSLKVNSVTAADTAMYYCARAPSAPFGGLFDWILPKGINNWGQGTLVTVSS VL: EIVLTQSPSTLSASVGDRVTITCRTSQSIRSWLAWYQQKPGKAPKLLIFEASTLESGVPERFSGSGSGAEFTLTISSLQPDDFATYYCQQYNGYSYSFGQGTKVEIR |  |  |  |  |  | 0.6 OD450 | 
EZ 11A (antibody, V domains shown, source: HEK293T, transfected; culture supernatant or purified) VH: EVQLVESGGGLVQPGGSLRLSCAASGFTFSSYWMSWVRQAPGKGLEWVANIKQDGSEKYYVDSVKGRFTISRDNAKNSLYLQMNSLRAEDTAVYYCARDDYSGSYYWEFDYWGQGTLVTVSS VL: QPVLTQSPSASASLGASVKLTCTLSSGHSSYAIAWHQQQPEKGPRYLMKLNSDGSHSKGDGIPDRFSGSSSGAERYLTISSLQSEDEADYYCQTWGTGIWVFGGGTKLTVL |  |  |  |  |  | 1.29 OD450 | OD450 [8]: 1.31 OD450
